Test results published in paper PMC8086355, “The unusual structure of the PiggyMac cysteine-rich domain reveals zinc finger diversity in PiggyBac-related transposases”.

Target: T1, MBP-PgmD401A (Paramecium tetraurelia, UniProt A0DFJ7 1-1065, D401A)
T1 sequence: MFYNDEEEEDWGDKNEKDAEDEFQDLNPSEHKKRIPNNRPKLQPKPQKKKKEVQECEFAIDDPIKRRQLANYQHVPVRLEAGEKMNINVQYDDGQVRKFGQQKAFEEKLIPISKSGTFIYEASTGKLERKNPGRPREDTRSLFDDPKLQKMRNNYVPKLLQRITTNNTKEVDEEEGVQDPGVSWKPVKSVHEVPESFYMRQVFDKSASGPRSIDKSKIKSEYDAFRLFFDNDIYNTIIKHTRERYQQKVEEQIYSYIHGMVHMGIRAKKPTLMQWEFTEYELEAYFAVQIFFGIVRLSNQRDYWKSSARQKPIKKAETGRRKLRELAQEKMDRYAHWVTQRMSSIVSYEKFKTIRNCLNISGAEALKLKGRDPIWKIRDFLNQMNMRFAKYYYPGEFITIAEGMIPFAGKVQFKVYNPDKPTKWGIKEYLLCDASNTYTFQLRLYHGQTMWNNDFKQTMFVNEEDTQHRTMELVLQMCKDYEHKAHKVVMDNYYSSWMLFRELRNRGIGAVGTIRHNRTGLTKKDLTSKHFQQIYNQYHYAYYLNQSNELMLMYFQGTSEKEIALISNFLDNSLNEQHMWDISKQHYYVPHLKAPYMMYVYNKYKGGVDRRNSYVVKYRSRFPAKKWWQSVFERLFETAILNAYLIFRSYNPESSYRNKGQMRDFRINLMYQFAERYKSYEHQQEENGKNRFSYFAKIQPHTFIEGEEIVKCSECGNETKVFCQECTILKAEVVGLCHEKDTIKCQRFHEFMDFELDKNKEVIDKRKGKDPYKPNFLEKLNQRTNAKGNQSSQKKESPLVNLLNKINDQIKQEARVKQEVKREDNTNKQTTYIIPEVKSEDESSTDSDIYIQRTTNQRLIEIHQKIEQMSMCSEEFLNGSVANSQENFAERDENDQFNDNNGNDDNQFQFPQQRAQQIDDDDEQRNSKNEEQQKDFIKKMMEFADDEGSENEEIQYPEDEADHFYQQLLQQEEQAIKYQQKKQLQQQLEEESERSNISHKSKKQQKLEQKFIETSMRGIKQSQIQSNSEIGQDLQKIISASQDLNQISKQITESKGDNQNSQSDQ
Test: DRaCALA; 400 nM protein; DRaCALA: 25 mM HEPES pH 7.5, 0.1 mg/ml BSA, 0.5 mM DTT, 100 mM NaCl, 25 nM DNA, no competitor, temperature not stated; EMSA: as in earlier paper, 5% acrylamide
Settings: protein: recombinant; tags: N-terminal MBP; label: 32P at 5' end of top strand

B1: IES 51A1835 80-bp substrate (dsDNA)
DNA 1: ACTACTACATAATGCTAAACTCATTTATAGATGGATTGTTTTCCAAGTATCTATATCATCATGTGTTGCTAATAACCCTG
DNA 2: ATCGCAGGGTTATTAGCAACACATGATGATATAGATACTTGGAAAACAATCCATCTATAAATGAGTTTAGCATTATGTAGT
B1: binds.
